Measurements taken from a protein production outcome set (Wang et al. 2014).

Assay: label from the status in PepcDB records

Sequence	protein production
MTRSEQNPVLFLAPDNVLWLLYTAQKSGNQDTAIVRYRQSTDLGATWGEIGTLLDQPGTFIRQPITVLENGDWLLPVFYCRVQPGEKWVGNDDDSAVKISSDQGKTWREYPVPNSTGCVHMNITPLQDGTLLALYRSRWADFIYQSRSTDGGKTWSEPVATDLPNNNSSIQVTTLKNGHLALVFNHMSAADATDRRLSLYDEIEDEEDKASGAKMPEVQAGDRSAFWGAPRAPMTLAISEDGGKSWPYQRNIEVGDGYCMTNNSTEKLNREFSYPSVKQAPDGKLHVAFTYFRQAIKHVVVSEEWVKAGLEHHHHHH	failed
MTRSQTRPRRQALAEILGLMGLLVAGGLLAGQGGQTLARSVGGLGGASAPMPSRPWHGSNHTPLPSRGDGMAALDHNLITAASIGDLDLVNRLLKAGASAQATDERGRTALLAAVYNRRGDVMLVLIQAGADVNRKDDEGNSPFLLAAATNQIDVVRLALSHGADLNSTDRYDGTALIAASQHGNVEIVKLLISAGVPVDRVNQLGWTALLEAIILGDGSSRYEDIVQALLDAGADANLADREGVTPSRHARERGYKTMVRMLMRARGH	failed
MTRSSNIPADATPNPHATAEQVAAARHDSKLAQVLYHDWEAENYDEKWSISYDQRCVDYARGRFDAIVPDEVIAQLPYDRALELGCGTGFFLLNLIQAGVARRGSVTDLSPGMVKVATRNGQALGLDIDGRVADAEGIPYDDDAFDLVVGHAVLHHIPDVELSLREVVRVLKPGGRFVFAGEPTTVGDGYARTLSTLTWRVVTNATKLPGLRGWRRPQGELDESSRAAALEALVDLHTFTPQDLQRIAHNAGAVEVQTATEEFTAAMLGWPLRTFECTVPPGRLGWGWARFAFTSWKTLGWVDANVWRHVVPKGWFYNVMITGVKPS	failed
MTRTEYLAELDKYLRKLPREDYHEAMEYYIEYFDEAGPDKESQVIDDLGNPKEAASEIISNVLGKHLATPEKTPKNRATIIGLTILSLFAAPIALPVLLALILFIIACLMLGLTAIFAAYIFGLAGILVAGVTLFESLTLIGSSIPAQAMGIGSALLCFGGGLLIWIIATAFLRFSGRAFVAFIKWISNKKGAQA	failed
MTRVDVVTRTLPPNEVSEANPWDTDRFWTVPNVLSVIRLIGVPIFLWLALGPRADGWAVAVLAVAGLTDWLDGRIARRWHQVSRIGQMLDPVADRLYIFATVIALTLRDVIPLWLVIVLIARDVCMACLMPALRTRGFTSLPVHFVGKAATFCLLYSFPLVLLGRFGTGGWTACRVLGWAFAVWGTGLYWWAFFLYLVQTIRIVRTLPRISSRGEYS	failed
MTRYGLRARVITLTLAPTLIIGLLLSGFFSFNRYQDLEKQVITTGNSIIEPLAIASESHLLAESREAVRRLISYAHRKNSKLVRSIAVFDEHHELFVTSNFHPNFEALMFPKDKPIPKLGNSEIYENSLILRVPILSEGHYLSELSNENQGTKAIGYIAVEMDLSSLRLQQYQEVFSAFLVLILGLGLASVFASRLMHDVTQPITHMKNVVDRIRRGHLDVRIEGKMHGELDQLKNGINAMAVSLSEYHVEMQHSIDQATSDLRETLEQLEIQNVELDIAKKRAQEAARVKSEFLANMSHELRTPLNGVIGFTRQMLKTQLSNSQTDYLQTIEKSANNLLNIINDILDFSKLEAGKLALENIPFDFRESLEEVINLQATSAHEKGLEITLKVDPKIPPGLVGDPLRIQQILTNLVGNSIKFTERGNIDVSVEMRSQAGDSVELQFMVRDTGIGISERQQAQLFQAFSQADASISRRYGGTGLGLVITQKLVSQMGGEISLTSRLHQGSTFWFTLRLNSTEMPMSDLIEVELLTGKQLLLVEPNMQAASVTQQILSQEGILVTYRSSLPENEEHYDYVLLNLAANQTYDEQSVAAWIEQAKRMAPSVIMGTPSTELALADQIMTEHQIQCLTKPLSRRKLLQSLINEHVEAPQAITAPVETEESERLPLTVLAVDDNPANLKLISALLKERVETVTACSNGQQAVNLATEKKYDLIFMDIQMPLMDGVTACQNIKELELNKDTPVIAVTAHAMAGERDRLLAAGMDDYLTKPIEEHVLQQVLVHWNPNTCTESIGKVAPSYVDEPESEAPATAENTQPDVIIDWQAALKQSANKEDLAKDMLRMLIDFIPEVEEVVDHALEQDDYSREELIHVIHKLHGSSSYCGVPRLKSLCATLEHALRSGASIEEIEPEMFELQDEMIKVTTTAKLYLEQ	failed
MTSAQKPVFSPSDLQTWLEIATEAVLAAGAEIFSLWGKVQQIQEKGRAGDLVTEADRQAEAIILEIIKRRCPDHAILAEESGQLGQVDNPFCWAIDPLDGTTNFAHSYPVSCVSIGLLIQDIPTVGVVYNPFRQELFRAATSLGATLNRRPIQVSTTASLDKSLLVTGFAYDRVKTLDNNYPEFCYLTHLTQGVRRSGSAAIDLIDVACGRLDGYWERGINPWDMAAGIVIVREAGGIVSAYDCSPLDLSTGRILATNGKIHQELSQALAATPQWFQQYAAARAQKI	failed
